Target: SARS-CoV-2 stabilized S trimer (HexaPro) (SARS-CoV-2)
Assay: negative-stain EM

Q: With “SARS-CoV-2 stabilized S trimer (HexaPro) (domain or fragment)” as the substance, how does the stoichiometry N read?
A: 3
